Laboratory results from patent publication US9327008B2, “Cell-permeant peptide-based inhibitor of kinases” (Purdue Research Foundation, priority 2008, dated 2016).

Assays:
Format in all cases: biochemical
Abl = target: T1, Abl (Homo sapiens, UniProt P00519); assay: Millipore radiometric kinase activity assay, Abl (h)
T1 construct: purchased Millipore (assay service)
Experimental: (§1) A commercial radiometric assay service (Millipore, Billerica, Mass.) was used to test the specificity and potency of peptides containing a coupled transduction domain and therapeutic domain, hereinafter “complete peptides”). In these assays, if the kinase is not inhibited by an inhibitor peptide, a positively charged substrate is phosphorylated with a radiolabeled phosphate group from an ATP.
(§2) In a final reaction volume of 25 μL, Abl (h) (5-10 mU) is incubated with 8 mM MOPS pH 7.0, 0.2 mM EDTA, 50 μM […] [SEQ ID NO: 48], 10 mM MgAcetate and [γ-^33P-ATP] (specific activity approx. 500 cpm/pmol, concentration as required). The reaction is initiated by the addition of the MgATP mix. After incubation for 40 minutes at room temperature, the reaction is stopped by the addition of 5 μL of a 3% phosphoric acid solution. 10 μL of the reaction is then spotted onto a P30 filtermat and washed three times for 5 minutes in 75 mM phosphoric acid and once in methanol prior to drying and scintillation counting.
(§3) IC50 values for inhibitor peptides were determined using Millipore's IC50Profiler Express service. The IC50 value was estimated from a 10-point curve of one-half log dilutions. For peptides tested for specificity, the concentration of the peptides that inhibited approximately 95% of MK2 activity was chosen to profile against a battery of kinases related to MK2, cell viability, or human disease from MilliporeKinaseProfiler service. In both assays, compounds were supplied in dimethylsulfoxide (DMSO). Every kinase activity measurement was conducted in duplicate.
(§4) Therapeutic inhibitor peptides were assayed for activity against human kinases related to MK2, cell viability, or human disease. The assays were performed using concentrations of therapeutic inhibitor peptides that yielded 2% to 8% of normal MK2 activity. Error is reported as the standard deviation between 2 samples, and “c” is rat AMPK whereas all other kinases used are human kinases.

CK1δ = target: T2, CK1δ (Homo sapiens, UniProt P48730); assay: Millipore radiometric kinase activity assay, CK1δ (h)
T2 construct: purchased Millipore (assay service)
Experimental: as §1
In a final reaction volume of 25 μL, CK1δ (h) (5-10 mU) is incubated with 8 mM MOPS pH 7.0, 0.2 mM EDTA, 200 μM KRRRALS(p)VASLPGL [SEQ ID NO: 54], 10 mM MgAcetate and [γ-^33P-ATP] (specific activity approx. 500 cpm/pmol, concentration as required). The reaction is initiated by the addition of the MgATP mix. After incubation for 40 minutes at room temperature, the reaction is stopped by the addition of 5 μL of a 3% phosphoric acid solution. 10 μL of the reaction is then spotted onto a P30 filtermat and washed three times for 5 minutes in 75 mM phosphoric acid and once in methanol prior to drying and scintillation counting.
as §3, §4

Lck = target: T3, Lck (Homo sapiens, UniProt P06239); assay: Millipore radiometric kinase activity assay, Lck (h)
T3 construct: purchased Millipore (assay service)
Text: A commercial radiometric assay service (Millipore, Billerica, Mass.) was used to test the specificity and potency of peptides containing a coupled transduction domain and therapeutic domain, hereinafter “complete peptides”). In these assays, if the kinase is not inhibited by an inhibitor peptide, a positively charged substrate is phosphorylated with a radiolabeled phosphate group from an ATP. […] The reaction is initiated by the addition of the MgATP mix. […] IC50 values for inhibitor peptides were determined using Millipore's IC50Profiler Express service. The IC50 value was estimated from a 10-point curve of one-half log dilutions. […] In both assays, compounds were supplied in dimethylsulfoxide (DMSO). Every kinase activity measurement was conducted in duplicate. Therapeutic inhibitor peptides were assayed for activity against human kinases related to MK2, cell viability, or human disease. […] Error is reported as the standard deviation between 2 samples, and “c” is rat AMPK whereas all other kinases used are human kinases.

LIMK1 = target: T4, LIMK1 (Homo sapiens, UniProt P53667); assay: Millipore radiometric kinase activity assay, LIMK1 (h)
T4 construct: purchased Millipore (radiometric assay service)
Experimental: as §1
In a final reaction volume of 25 μL, LIMK1 (h) (5-10 mU) is incubated with 8 mM MOPS pH 7.0, 0.2 mM EDTA, 0.6 mg/mL cofilin, 10 mM MgAcetate and [γ-^33P-ATP] (specific activity approx. 500 cpm/pmol, concentration as required). The reaction is initiated by the addition of the MgATP mix. After incubation for 40 minutes at room temperature, the reaction is stopped by the addition of 5 μL of a 3% phosphoric acid solution. 10 μL of the reaction is then spotted onto a P30 filtermat and washed three times for 5 minutes in 75 mM phosphoric acid and once in methanol prior to drying and scintillation counting.
as §3, §4

MEK1 = target: T5, MEK1 (Homo sapiens, UniProt Q02750); assay: Millipore radiometric kinase activity assay, MEK1 (h)
T5 construct: purchased Millipore (radiometric assay service)
Experimental: as §1
The reaction is initiated by the addition of the MgATP. After incubation for 40 minutes at room temperature, 5 μL of this incubation mix is used to initiate a MAPK2 (m) assay.
as §3, §4

Pim-1 = target: T6, Pim-1 (Homo sapiens, UniProt P11309); assay: Millipore radiometric kinase activity assay, Pim-1 (h)
T6 construct: purchased Millipore (radiometric assay service)
Experimental: as §1
as §2, with “μL, Pim-1” for “μL, Abl”, “EDTA, 100” for “EDTA, 50”, “NO: 59],” for “NO: 48],”
as §3, §4

Src (residues 1-530) = target: T7, Src (residues 1-530) (Homo sapiens, UniProt P12931); assay: Millipore radiometric kinase activity assay, SRC (1-530) (h)
T7 construct: SRC (1-530) (h) (5-10 mU) is incubated; purchased Millipore (radiometric assay service)
Experimental: as §1
as §2, with “SRC (1-530)” for “Abl”, “[…]” for “50 μM”, “58],” for “48],”
as §3, §4

T3 sequence (P06239 whole entry): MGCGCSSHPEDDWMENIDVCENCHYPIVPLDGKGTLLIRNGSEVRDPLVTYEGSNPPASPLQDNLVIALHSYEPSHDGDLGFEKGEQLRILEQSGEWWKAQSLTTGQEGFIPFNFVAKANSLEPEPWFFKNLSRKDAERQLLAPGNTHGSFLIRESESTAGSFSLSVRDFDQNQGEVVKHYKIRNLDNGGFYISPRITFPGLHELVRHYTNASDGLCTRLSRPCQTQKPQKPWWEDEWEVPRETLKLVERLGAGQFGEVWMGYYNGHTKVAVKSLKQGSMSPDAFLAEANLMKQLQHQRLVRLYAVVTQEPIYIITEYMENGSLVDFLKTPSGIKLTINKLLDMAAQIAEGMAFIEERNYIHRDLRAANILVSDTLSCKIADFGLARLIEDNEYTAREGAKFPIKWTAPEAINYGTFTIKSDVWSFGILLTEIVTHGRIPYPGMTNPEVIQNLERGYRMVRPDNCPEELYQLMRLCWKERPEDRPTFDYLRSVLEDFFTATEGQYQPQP
T4 sequence (P53667 whole entry): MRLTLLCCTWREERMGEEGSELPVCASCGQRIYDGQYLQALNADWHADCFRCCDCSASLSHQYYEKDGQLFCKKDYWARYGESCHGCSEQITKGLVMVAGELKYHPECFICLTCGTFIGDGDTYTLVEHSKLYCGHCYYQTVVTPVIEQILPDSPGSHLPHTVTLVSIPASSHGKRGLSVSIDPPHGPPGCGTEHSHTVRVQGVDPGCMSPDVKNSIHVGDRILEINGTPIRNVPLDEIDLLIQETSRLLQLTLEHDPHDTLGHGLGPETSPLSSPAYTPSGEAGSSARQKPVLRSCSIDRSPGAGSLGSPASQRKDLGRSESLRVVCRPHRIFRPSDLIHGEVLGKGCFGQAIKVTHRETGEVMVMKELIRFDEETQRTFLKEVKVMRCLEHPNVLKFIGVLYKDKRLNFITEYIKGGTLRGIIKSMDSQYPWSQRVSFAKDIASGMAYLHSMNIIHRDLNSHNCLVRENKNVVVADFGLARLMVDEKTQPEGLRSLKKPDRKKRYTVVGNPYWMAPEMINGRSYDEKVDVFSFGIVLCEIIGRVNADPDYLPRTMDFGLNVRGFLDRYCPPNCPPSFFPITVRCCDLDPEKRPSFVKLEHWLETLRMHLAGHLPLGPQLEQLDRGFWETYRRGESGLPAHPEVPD
T1 sequence (P00519 whole entry): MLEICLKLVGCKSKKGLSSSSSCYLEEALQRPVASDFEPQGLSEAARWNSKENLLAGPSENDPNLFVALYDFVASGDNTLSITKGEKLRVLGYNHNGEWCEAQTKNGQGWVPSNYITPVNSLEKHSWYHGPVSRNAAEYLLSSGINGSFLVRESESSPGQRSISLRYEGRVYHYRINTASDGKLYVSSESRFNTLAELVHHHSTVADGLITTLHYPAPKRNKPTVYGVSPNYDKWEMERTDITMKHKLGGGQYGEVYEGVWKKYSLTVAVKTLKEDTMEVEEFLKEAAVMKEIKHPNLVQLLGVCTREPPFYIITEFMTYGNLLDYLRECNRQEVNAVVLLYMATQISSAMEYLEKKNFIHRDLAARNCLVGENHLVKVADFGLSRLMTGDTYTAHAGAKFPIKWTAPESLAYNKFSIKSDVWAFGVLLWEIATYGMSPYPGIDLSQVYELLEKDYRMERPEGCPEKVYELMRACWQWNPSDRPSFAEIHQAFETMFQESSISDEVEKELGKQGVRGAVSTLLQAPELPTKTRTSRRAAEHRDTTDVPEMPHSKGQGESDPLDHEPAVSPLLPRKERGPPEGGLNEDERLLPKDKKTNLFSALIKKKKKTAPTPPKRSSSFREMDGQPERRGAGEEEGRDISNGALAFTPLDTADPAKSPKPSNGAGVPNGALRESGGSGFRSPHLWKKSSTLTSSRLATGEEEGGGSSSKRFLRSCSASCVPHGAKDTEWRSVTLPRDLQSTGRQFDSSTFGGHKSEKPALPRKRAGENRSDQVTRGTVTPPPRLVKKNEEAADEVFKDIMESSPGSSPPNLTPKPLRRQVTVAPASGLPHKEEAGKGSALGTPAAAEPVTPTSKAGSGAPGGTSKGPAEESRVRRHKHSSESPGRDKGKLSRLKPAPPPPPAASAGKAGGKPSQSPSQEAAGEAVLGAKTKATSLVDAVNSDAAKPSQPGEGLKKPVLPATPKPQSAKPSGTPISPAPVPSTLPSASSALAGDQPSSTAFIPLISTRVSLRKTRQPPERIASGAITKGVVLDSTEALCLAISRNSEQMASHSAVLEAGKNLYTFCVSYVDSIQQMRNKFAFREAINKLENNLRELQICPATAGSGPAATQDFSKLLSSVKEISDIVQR
T2 sequence (P48730 whole entry): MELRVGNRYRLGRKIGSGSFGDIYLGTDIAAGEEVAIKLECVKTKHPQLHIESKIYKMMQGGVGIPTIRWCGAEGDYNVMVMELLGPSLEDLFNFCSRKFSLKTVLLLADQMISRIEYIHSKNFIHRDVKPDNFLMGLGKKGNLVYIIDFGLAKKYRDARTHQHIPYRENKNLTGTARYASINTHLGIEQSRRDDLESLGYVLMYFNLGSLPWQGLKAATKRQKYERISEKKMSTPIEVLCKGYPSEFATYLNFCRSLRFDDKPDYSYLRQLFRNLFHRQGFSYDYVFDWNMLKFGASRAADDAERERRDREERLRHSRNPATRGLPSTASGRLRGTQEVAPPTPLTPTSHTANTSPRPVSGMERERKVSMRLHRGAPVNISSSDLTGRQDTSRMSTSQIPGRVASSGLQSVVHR
T6 sequence (P11309 whole entry): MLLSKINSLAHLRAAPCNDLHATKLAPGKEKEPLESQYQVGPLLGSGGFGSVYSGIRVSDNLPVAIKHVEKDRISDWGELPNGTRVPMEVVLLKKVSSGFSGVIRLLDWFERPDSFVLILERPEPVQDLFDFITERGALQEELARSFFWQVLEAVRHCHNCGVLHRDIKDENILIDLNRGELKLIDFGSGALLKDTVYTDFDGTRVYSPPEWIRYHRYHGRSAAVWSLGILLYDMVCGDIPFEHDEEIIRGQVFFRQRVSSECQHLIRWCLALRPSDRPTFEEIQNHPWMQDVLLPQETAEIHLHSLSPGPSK

| Sequence | Abl Kinase Activity (%) (+SD %) (Abl; peptide 100 μM) | CK1δ Kinase Activity (%) (+SD %) (CK1δ; peptide 100 μM) | Lck Kinase Activity (%) (+SD %) (Lck; peptide 100 μM) | LIMK1 Kinase Activity (%) (+SD %) (LIMK1; peptide 100 μM) | MEK1 Kinase Activity (%) (+SD %) (MEK1; peptide 100 μM) | Pim-1 Kinase Activity (%) (+SD %) (Pim-1; peptide 100 μM) | Src (residues 1-530) Kinase Activity (%) (+SD %) (Src (residues 1-530); peptide 100 μM) | Abl Kinase Activity (%) (+SD %) (Abl; peptide 30 μM) | CK1δ Kinase Activity (%) (+SD %) (CK1δ; peptide 30 μM) | Lck Kinase Activity (%) (+SD %) (Lck; peptide 30 μM) | LIMK1 Kinase Activity (%) (+SD %) (LIMK1; peptide 30 μM) | MEK1 Kinase Activity (%) (+SD %) (MEK1; peptide 30 μM) | Pim-1 Kinase Activity (%) (+SD %) (Pim-1; peptide 30 μM) | Src (residues 1-530) Kinase Activity (%) (+SD %) (Src (residues 1-530); peptide 30 μM) |
| --- | --- | --- | --- | --- | --- | --- | --- | --- | --- | --- | --- | --- | --- | --- |
| KAFAKLAARLYRKALARQLGVAA | 55 (0) % | 97 (2) % | 847 (29) % | 93 (3) % | 66 (0) % | 1 (2) % | 3 (0) % |  |  |  |  |  |  |  |
| WLRRIKAWLRRIKALNRQLGVAA | 41 (2) % | 99 (3) % | 493 (7) % | 92 (2) % | 68 (2) % | 1 (0) % | 5 (1) % | 24 (5) % | 52 (1) % | 130 (1) % | 89 (3) % | 14 (2) % | 5 (1) % | 6 (1) % |
